{"source": "paper PMC4610036", "about": "(Journal of molecular catalysis. B, Enzymatic, 2015)", "target": "the molecule itself", "experiment": "crystal structure"}
{"protein": "β-ketoacyl thiolase B of Ralstonia eutropha (enzyme, UniProt Q0KBP1 1-394, looked up) MTREVVVVSGVRTAIGTFGGSLKDVAPAELGALVVREALARAQVSGDDVGHVVFGNVIQTEPRDMYLGRVAAVNGGVTINAPALTVNRLCGSGLQAIVSAAQTILLGDTDVAIGGGAESMSRAPYLAPAARWGARMGDAGLVDMMLGALHDPFHRIHMGVTAENVAKEYDISRAQQDEAALESHRRASAAIKAGYFKDQIVPVVSKGRKGDVTFDTDEHVRHDATIDDMTKLRPVFVKENGTVTAGNASGLNDAAAAVVMMERAEAERRGLKPLARLVSYGHAGVDPKAMGIGPVPATKIALERAGLQVSDLDVIEANEAFAAQACAVTKALGLDPAKVNPNGSGISLGHPIGATGALITVKALHELNRVQGRYALVTMCIGGGQGIAAIFERI", "values": [{"measurement": "stoichiometry N", "value": 4}]}
